Target: MavC (wild type) (L. pneumophila)
Assay: SEC

Q: For MavC (wild type) (enzyme), which stoichiometry N is on record?
A: 2
